Experimental data from patent US20220411483A1 (Chugai, published 2022).
Where a chain is given by its changes, count along the chain named. One block for each binder: values may come before it.

Assays:
[1] = target: T1, FcγRIIa R type extracellular domain, His tag (human, UniProt P12318 34-217); assay: SPR, bound amount per captured antibody
T1 construct: extracellular domain; also called FcgRIIaR
T1 sequence (looked up): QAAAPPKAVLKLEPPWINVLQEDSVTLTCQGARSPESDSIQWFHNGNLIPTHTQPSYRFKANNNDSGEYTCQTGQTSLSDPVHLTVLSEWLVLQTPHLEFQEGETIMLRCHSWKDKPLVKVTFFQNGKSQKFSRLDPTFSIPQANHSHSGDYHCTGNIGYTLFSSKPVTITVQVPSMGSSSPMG

[2] = target: T2, FcγRIIb extracellular domain, His tag (human, UniProt P31994 43-217); assay: SPR, bound amount per captured antibody
T2 construct: extracellular domain; also called FcgRIIb
T2 sequence (looked up): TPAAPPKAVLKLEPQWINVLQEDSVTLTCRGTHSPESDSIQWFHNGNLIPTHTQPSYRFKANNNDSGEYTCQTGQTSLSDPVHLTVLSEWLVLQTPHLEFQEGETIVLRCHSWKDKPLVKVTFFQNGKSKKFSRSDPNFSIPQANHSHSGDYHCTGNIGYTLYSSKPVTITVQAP

[3] = target: T3, FcγRIa extracellular domain, His tag (human, UniProt P12314 16-292); assay: SPR, KD ratio
T3 construct: whole entry named; also called FcgRIa

[4] = target: T1, FcγRIIa R type extracellular domain, …; assay: SPR, KD ratio
[5] = target: T4, FcγRIIIa V type extracellular domain, His tag (human, UniProt P08637 17-208); assay: SPR, KD ratio
T4 construct: extracellular domain; also called FcgRIIIaV

[6] = target: T5, FcγRIIa H type extracellular domain, His tag (human, UniProt P12318 34-217); assay: SPR, KD ratio
T5 construct: extracellular domain; also called FcgRIIaH
T5 sequence (looked up): T1 sequence (looked up) with R134H

[7] = target: T2, FcγRIIb extracellular domain, His tag; assay: SPR, KD ratio

T3 sequence (P12314 16-292): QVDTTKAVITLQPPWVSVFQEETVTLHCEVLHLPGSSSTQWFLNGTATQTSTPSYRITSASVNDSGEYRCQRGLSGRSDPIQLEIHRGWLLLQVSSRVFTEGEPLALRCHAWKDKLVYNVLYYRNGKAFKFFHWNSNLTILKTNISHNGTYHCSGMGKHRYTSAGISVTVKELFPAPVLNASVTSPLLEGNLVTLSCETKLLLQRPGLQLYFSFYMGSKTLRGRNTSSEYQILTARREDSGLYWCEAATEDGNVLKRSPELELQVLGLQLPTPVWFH
T4 sequence (P08637 17-208 F176V): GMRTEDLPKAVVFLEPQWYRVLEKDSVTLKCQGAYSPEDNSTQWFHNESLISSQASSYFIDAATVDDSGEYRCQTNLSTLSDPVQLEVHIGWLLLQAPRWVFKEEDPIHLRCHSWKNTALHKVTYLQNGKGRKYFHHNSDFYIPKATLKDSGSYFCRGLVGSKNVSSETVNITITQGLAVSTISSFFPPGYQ

B1: IL6R-P658/IL6R-L (antibody, human IgG1, kappa)
heavy: QVQLQESGPGLVKPSETLSLTCAVSGHSISHDHAWSWVRQPPGEGLEWIGFISYSGITNYNPSLQGRVTISRDNSKNTLYLQMNSLRAEDTAVYYCARSLARTTAMDYWGEGTLVTVSSASTKGPSVFPLAPSSKSTSGGTAALGCLVKDYFPEPVTVSWNSGALTSGVHTFPAVLQSSGLYSLSSVVTVPSSSLGTQTYICNVNHKPSNTKVDKKVEPKSCDKTHTCPPCPAPELFGGDSVMLFPPKPKDTLMISRTPEVTCVVVDVSHEDPEVKFNWYVDGVEVHNAKTKPREEQENSTYRVVSVLTVLHQDWLNGKEYKCKVSNKALPAPIEKTISKAKGQPREPQVYTLPPSRDELTKNQVSLTCLVKGFYPSDIAVEWESNGQPENNYKTTPPVLDSDGSFFLYSKLTVDKSRWQQGNVFSCSVMHEALHNHYTQKSLSLSP
light: not shown
Relative FcgRIIaR-binding Activity [1]: 20.8 % of IL6R-G1d/IL6R-L
Relative FcgRIIb-binding Activity [2]: 149 % of IL6R-G1d/IL6R-L
Relative FcgRIa-binding Activity [3]: 0.0004 fold of IL6R-G1d/IL6R-L
Relative FcgRIIaR-binding Activity [4]: 0.038 fold of IL6R-G1d/IL6R-L
Relative FcgRIIIaV-binding Activity [5]: 0.005 fold of IL6R-G1d/IL6R-L
Relative FcgRIIaH-binding Activity [6]: 0.01 fold of IL6R-G1d/IL6R-L
Relative FcgRIIb-binding Activity [7]: 3.81 fold of IL6R-G1d/IL6R-L

B2: IL6R-P660/IL6R-L (antibody, human IgG1, kappa)
heavy: B1 heavy with F237L, M243F, E298Y, S300A, S326N
light: not shown
Relative FcgRIIaR-binding Activity [1]: 14.7 % of IL6R-G1d/IL6R-L
Relative FcgRIIb-binding Activity [2]: 100 % of IL6R-G1d/IL6R-L
Relative FcgRIa-binding Activity [3]: 0.0446 fold of IL6R-G1d/IL6R-L
Relative FcgRIIaR-binding Activity [4]: 0.025 fold of IL6R-G1d/IL6R-L
Relative FcgRIIIaV-binding Activity [5]: 0.011 fold of IL6R-G1d/IL6R-L
Relative FcgRIIaH-binding Activity [6]: 0.009 fold of IL6R-G1d/IL6R-L
Relative FcgRIIb-binding Activity [7]: 0.972 fold of IL6R-G1d/IL6R-L

B4: IL6R-P659/IL6R-L (antibody, human IgG1, kappa)
heavy: B1 heavy with F237L, G239Q
light: not shown
Relative FcgRIIaR-binding Activity [1]: 9.1 % of IL6R-G1d/IL6R-L
Relative FcgRIIb-binding Activity [2]: 87 % of IL6R-G1d/IL6R-L
Relative FcgRIa-binding Activity [3]: 0.0041 fold of IL6R-G1d/IL6R-L
Relative FcgRIIaR-binding Activity [4]: 0.015 fold of IL6R-G1d/IL6R-L
Relative FcgRIIIaV-binding Activity [5]: 0.005 fold of IL6R-G1d/IL6R-L
Relative FcgRIIaH-binding Activity [6]: 0.006 fold of IL6R-G1d/IL6R-L
Relative FcgRIIb-binding Activity [7]: 0.807 fold of IL6R-G1d/IL6R-L

B7: IL6R-P655/IL6R-L (antibody, human IgG1, kappa)
heavy: B1 heavy with F237L, S326H
light: not shown
Relative FcgRIIaR-binding Activity [1]: 17.1 % of IL6R-G1d/IL6R-L
Relative FcgRIIb-binding Activity [2]: 127 % of IL6R-G1d/IL6R-L
Relative FcgRIa-binding Activity [3]: 0.0183 fold of IL6R-G1d/IL6R-L
Relative FcgRIIaR-binding Activity [4]: 0.03 fold of IL6R-G1d/IL6R-L
Relative FcgRIIIaV-binding Activity [5]: 0.007 fold of IL6R-G1d/IL6R-L
Relative FcgRIIaH-binding Activity [6]: 0.017 fold of IL6R-G1d/IL6R-L
Relative FcgRIIb-binding Activity [7]: 1.89 fold of IL6R-G1d/IL6R-L

Other lines, results leading:

Relative FcgRIIaR-binding Activity [1]: 10.7 % of IL6R-G1d/IL6R-L
Relative FcgRIIb-binding Activity [2]: 104 % of IL6R-G1d/IL6R-L
Relative FcgRIa-binding Activity [3]: 0.0004 fold of IL6R-G1d/IL6R-L
Relative FcgRIIaR-binding Activity [4]: 0.017 fold of IL6R-G1d/IL6R-L
Relative FcgRIIIaV-binding Activity [5]: 0.007 fold of IL6R-G1d/IL6R-L
Relative FcgRIIaH-binding Activity [6]: 0.007 fold of IL6R-G1d/IL6R-L
Relative FcgRIIb-binding Activity [7]: 1.19 fold of IL6R-G1d/IL6R-L
B3: IL6R-P691/IL6R-L (antibody, human IgG1, kappa)
heavy: B1 heavy with G239Q
light: not shown

Relative FcgRIIaR-binding Activity [1]: 8.1 % of IL6R-G1d/IL6R-L
Relative FcgRIIb-binding Activity [2]: 85.8 % of IL6R-G1d/IL6R-L
Relative FcgRIa-binding Activity [3]: 0.0049 fold of IL6R-G1d/IL6R-L
Relative FcgRIIaR-binding Activity [4]: 0.012 fold of IL6R-G1d/IL6R-L
Relative FcgRIIIaV-binding Activity [5]: 0.006 fold of IL6R-G1d/IL6R-L
Relative FcgRIIaH-binding Activity [6]: 0.007 fold of IL6R-G1d/IL6R-L
Relative FcgRIIb-binding Activity [7]: 0.499 fold of IL6R-G1d/IL6R-L
B5: IL6R-P731/IL6R-L (antibody, human IgG1, kappa)
heavy: B1 heavy with F237L, G239Q, H270P, S326H
light: not shown

Relative FcgRIIaR-binding Activity [1]: 11 % of IL6R-G1d/IL6R-L
Relative FcgRIIb-binding Activity [2]: 126 % of IL6R-G1d/IL6R-L
Relative FcgRIa-binding Activity [3]: 0.0006 fold of IL6R-G1d/IL6R-L
Relative FcgRIIaR-binding Activity [4]: 0.017 fold of IL6R-G1d/IL6R-L
Relative FcgRIIIaV-binding Activity [5]: 0.007 fold of IL6R-G1d/IL6R-L
Relative FcgRIIaH-binding Activity [6]: 0.012 fold of IL6R-G1d/IL6R-L
Relative FcgRIIb-binding Activity [7]: 1.31 fold of IL6R-G1d/IL6R-L
B6: IL6R-P728/IL6R-L (antibody, human IgG1, kappa)
heavy: B1 heavy with G239Q, S326H
light: not shown

Relative FcgRIIaR-binding Activity [1]: 10.1 % of IL6R-G1d/IL6R-L
Relative FcgRIIb-binding Activity [2]: 103 % of IL6R-G1d/IL6R-L
Relative FcgRIa-binding Activity [3]: 0.0118 fold of IL6R-G1d/IL6R-L
Relative FcgRIIaR-binding Activity [4]: 0.016 fold of IL6R-G1d/IL6R-L
Relative FcgRIIIaV-binding Activity [5]: 0.007 fold of IL6R-G1d/IL6R-L
Relative FcgRIIaH-binding Activity [6]: 0.008 fold of IL6R-G1d/IL6R-L
Relative FcgRIIb-binding Activity [7]: 1.09 fold of IL6R-G1d/IL6R-L
B8: IL6R-P689/IL6R-L (antibody, human IgG1, kappa)
heavy: B1 heavy with F237L, H270P, S326H
light: not shown

Relative FcgRIIaR-binding Activity [1]: 8.3 % of IL6R-G1d/IL6R-L
Relative FcgRIIb-binding Activity [2]: 108 % of IL6R-G1d/IL6R-L
Relative FcgRIa-binding Activity [3]: 0.0014 fold of IL6R-G1d/IL6R-L
Relative FcgRIIaR-binding Activity [4]: 0.012 fold of IL6R-G1d/IL6R-L
Relative FcgRIIIaV-binding Activity [5]: 0.005 fold of IL6R-G1d/IL6R-L
Relative FcgRIIaH-binding Activity [6]: 0.007 fold of IL6R-G1d/IL6R-L
Relative FcgRIIb-binding Activity [7]: 1.06 fold of IL6R-G1d/IL6R-L
B9: IL6R-P727/IL6R-L (antibody, human IgG1, kappa)
heavy: B1 heavy with F237L, G239Q, H270P, A332H
light: not shown

Relative FcgRIIaR-binding Activity [1]: 11.9 % of IL6R-G1d/IL6R-L
Relative FcgRIIb-binding Activity [2]: 165 % of IL6R-G1d/IL6R-L
Relative FcgRIa-binding Activity [3]: 0.0005 fold of IL6R-G1d/IL6R-L
Relative FcgRIIaR-binding Activity [4]: 0.017 fold of IL6R-G1d/IL6R-L
Relative FcgRIIIaV-binding Activity [5]: 0.004 fold of IL6R-G1d/IL6R-L
Relative FcgRIIaH-binding Activity [6]: 0.01 fold of IL6R-G1d/IL6R-L
Relative FcgRIIb-binding Activity [7]: 1.75 fold of IL6R-G1d/IL6R-L
B10: IL6R-P732/IL6R-L (antibody, human IgG1, kappa)
heavy: B1 heavy with H270P, S326H
light: not shown
